In doi:10.1101/2025.01.03.631197:

Molecular target: EPHA2 (human (endogenous in HSC-4)) (UniProt P29317)
Assay: proximity ligation

UniProt P29317, sequence (P29317 24-976): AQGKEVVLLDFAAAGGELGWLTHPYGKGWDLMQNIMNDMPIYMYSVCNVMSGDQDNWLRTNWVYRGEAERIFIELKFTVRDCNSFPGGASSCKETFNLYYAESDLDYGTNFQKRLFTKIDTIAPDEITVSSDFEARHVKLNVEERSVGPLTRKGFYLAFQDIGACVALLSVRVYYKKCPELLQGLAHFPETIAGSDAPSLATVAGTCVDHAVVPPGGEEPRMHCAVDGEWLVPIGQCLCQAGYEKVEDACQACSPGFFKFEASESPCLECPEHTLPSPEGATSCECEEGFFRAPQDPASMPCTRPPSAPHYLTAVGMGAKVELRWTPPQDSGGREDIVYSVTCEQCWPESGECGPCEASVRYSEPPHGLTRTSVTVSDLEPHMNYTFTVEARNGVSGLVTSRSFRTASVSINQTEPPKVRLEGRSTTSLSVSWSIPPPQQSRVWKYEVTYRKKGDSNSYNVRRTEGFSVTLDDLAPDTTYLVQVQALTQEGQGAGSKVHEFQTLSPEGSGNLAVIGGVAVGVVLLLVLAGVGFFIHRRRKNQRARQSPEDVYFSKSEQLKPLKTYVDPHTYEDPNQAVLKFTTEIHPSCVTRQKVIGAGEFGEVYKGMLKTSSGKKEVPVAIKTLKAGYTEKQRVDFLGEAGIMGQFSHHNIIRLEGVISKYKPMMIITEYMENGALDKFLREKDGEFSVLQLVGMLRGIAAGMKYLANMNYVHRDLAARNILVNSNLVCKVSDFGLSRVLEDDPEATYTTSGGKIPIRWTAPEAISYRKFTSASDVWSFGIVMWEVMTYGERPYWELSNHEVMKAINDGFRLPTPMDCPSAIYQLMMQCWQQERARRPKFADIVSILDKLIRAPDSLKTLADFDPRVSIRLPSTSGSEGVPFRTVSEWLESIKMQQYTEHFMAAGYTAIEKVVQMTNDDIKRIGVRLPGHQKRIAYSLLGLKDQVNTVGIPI

PLA foci per cell (foci per cell): 2
Substance: Ephrin-B1 phosphorylated at Y324/329 (ligand)
